Data from article PMC4980022.
“And” between values parts separate entries of the source, which are not always exact repeats. Equal values may be shown once.

Assays:
[1] = biological target: PorK lipoprotein (Porphyromonas gingivalis W50 (endogenous in W50ABK*WbaP)); experiment: negative-stain electron microscopy and electron tomography; purified PorK/N complex (fraction 6 of the CsCl gradient) stained with uranyl acetate
[2] = biological target: PorK lipoprotein (Porphyromonas gingivalis W50 (endogenous in W50ABK*WbaP)); experiment: densitometry of Coomassie stained gels; purified PorK/N complex on SDS-PAGE; PorK band against the combined PorN bands
[3] = biological target: PorN (Porphyromonas gingivalis W50 (endogenous in W50ABK*WbaP)); experiment: negative-stain electron microscopy and electron tomography; purified PorK/N complex (fraction 6 of the CsCl gradient) stained with uranyl acetate
[4] = biological target: PorK lipoprotein (Porphyromonas gingivalis W50 (endogenous in W50ABK*WbaP)); experiment: high sensitivity amino acid analysis of the bands; purified PorK/N complex separated on SDS-PAGE, transferred to PVDF, PorK and PorN bands excised

Substance	stoichiometry N [1]	stoichiometry N (PorN per PorK) [2]	stoichiometry N [3]	stoichiometry N (PorN per PorK) [4]
PorK lipoprotein (natural protein)	32 to 36 subunits			
PorN (natural protein)		1 and 1.2	32 to 36 subunits	1.2
